Consider 8 molecules from patent US9266964.

First the molecules themselves.
B1: M195-B12 (Fab, V domains shown)
VH: EVQLLESGGGLVQPGGSLRLSCAASGFTFSKYWMYWVRQAPGKGLEWVSYIRPSGGQTYYADSVKGRFTISRDNSKNTLYLQMNSLRAEDTAVYYCAYRRTGIPRRDAFDIWGQGTMVTVSS
VL: DIQMTQSPSTLSASVGDRVTITCRASQSISSWLAWYQQKPGKAPNLLIYKASTLESGVPSRFSGSGSGTEFTLTISSLQPDDFATYYCQQYNTYWTFGQGTKVEIK
B2: M200-H07 (Fab, V domains shown)
VH: EVQLLESGGGLVQPGGSLRLSCAASGFTFSHYIMMWVRQAPGKGLEWVSGIYSSGGITVYADSVKGRFTISRDNSKNTLYLQMNSLRAEDTAVYYCAYRRTGVPRRNAFDNWGQGTMVTVSS
VL: DIQMTQSPSTLSASVGDRVTITCRASQSISSWLAWYQQKPGKAPNLLIYKASTLESGVPSRFSGSGSGTEFTLTISSLQPDDFATYYCQQYNTYWTFGQGTKVEIK
B3: M202-F06 (Fab, V domains shown)
VH: EVQLLESGGGLVQPGGSLRLSCAASGFTFSHYIMMWVRQAPGKGLEWVSGIYSSGGITVYADSVKGRFTISRDNSKNTLYLQMNSLRAEDTAVYYCAYRRTGVPRWDAFDIWGQGTMVTVSS
VL: DIQMTQSPSTLSASVGDRVTITCRASQSISSWLAWYQQKPGKAPNLLIYKASTLESGVPSRFSGSGSGTEFTLTISSLQPDDFATYYCQQYNTYWTFGQGTKVEIK
B4: M195-C12 (Fab, V domains shown)
VH: EVQLLESGGGLVQPGGSLRLSCAASGFTFSMYQMFWVRQAPGKGLEWVSSISPGGGTQYADSVKGRFTISRDNSKNTLYLQMNSLRAEDTAVYYCAYRRTGIPRRDAFDIWGQGTMVTVSS
VL: DIQMTQSPSTLSASVGDRVTITCRASQSISSWLAWYQQKPGKAPNLLIYKASTLESGVPSRFSGSGSGTEFTLTISSLQPDDFATYYCQQYNTYWTFGQGTKVEIK
B5: M198-H02 (Fab, V domains shown)
VH: EVQLLESGGGLVQPGGSLRLSCAASGFTFSPYNMYWVRQAPGKGLEWVSWIVPGGVTKYADSVKGRFTISRDNSKNTLYLQMNSLRAEDTAVYYCAYRRTGIPRRDAFDIWGQGTMVTVSS
VL: DIQMTQSPSTLSASVGDRVTITCRASQSISSWLAWYQQKPGKAPNLLIYKASTLESGVPSRFSGSGSGTEFTLTISSLQPDDFATYYCQQYNTYWTFGQGTKVEIK
B6: M202-H05 (Fab, V domains shown)
VH: EVQLLESGGGLVQPGGSLRLSCAASGFTFSHYIMMWVRQAPGKGLEWVSGIYSSGGITVYADSVKGRFTISRDNSKNTLYLQMNSLRAEDTAVYYCAFRRTGVPRRDVFDIWGQGTMVTVSS
VL: DIQMTQSPSTLSASVGDRVTITCRASQSISSWLAWYQQKPGKAPNLLIYKASTLESGVPSRFSGSGSGTEFTLTISSLQPDDFATYYCQQYNTYWTFGQGTKVEIK
B7: M201-H06 (Fab, V domains shown)
VH: EVQLLESGGGLVQPGGSLRLSCAASGFTFSHYIMMWVRQAPGKGLEWVSGIYSSGGITVYADSVKGRFTISRDNSKNTLYLQMNSLRAEDTAVYYCAYRRTGVPRRDAFDIWGQGTMVTVSS
VL: DIQMTQSPSTLSASVGDRVTITCRASQSISSWLAWYQQKPGKAPNLLIYKASTLESGVPSRFSGSGSGTEFTLTISSLQPDDFATYYCQQYNTYWTFGQGTKVEIK
B8: M198-A07 (Fab, V domains shown)
VH: EVQLLESGGGLVQPGGSLRLSCAASGFTFSRYQMHWVRQAPGKGLEWVSWISPSGGITGYADSVKGRFTISRDNSKNTLYLQMNSLRAEDTAVYYCAYRRTGIPRRDAFDIWGQGTMVTVSS
VL: DIQMTQSPSTLSASVGDRVTITCRASQSISSWLAWYQQKPGKAPNLLIYKASTLESGVPSRFSGSGSGTEFTLTISSLQPDDFATYYCQQYNTYWTFGQGTKVEIK

The target of the assay is human plasma kallikrein (human, UniProt P03952 20-390; P03952 391-638). Briefly: cell-based or functional assay.
Sequence of human plasma kallikrein (P03952 20-390, chain 1 of 2): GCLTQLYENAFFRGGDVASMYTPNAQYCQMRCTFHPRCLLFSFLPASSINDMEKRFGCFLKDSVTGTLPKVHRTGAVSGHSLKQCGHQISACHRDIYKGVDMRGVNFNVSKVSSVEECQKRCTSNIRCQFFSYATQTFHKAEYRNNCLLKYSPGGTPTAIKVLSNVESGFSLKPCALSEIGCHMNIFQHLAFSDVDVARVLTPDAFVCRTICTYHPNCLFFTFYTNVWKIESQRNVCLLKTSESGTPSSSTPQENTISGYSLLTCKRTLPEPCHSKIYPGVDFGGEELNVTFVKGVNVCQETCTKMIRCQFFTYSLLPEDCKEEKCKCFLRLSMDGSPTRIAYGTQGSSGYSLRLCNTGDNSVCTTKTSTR
Sequence of human plasma kallikrein (P03952 391-638, chain 2 of 2): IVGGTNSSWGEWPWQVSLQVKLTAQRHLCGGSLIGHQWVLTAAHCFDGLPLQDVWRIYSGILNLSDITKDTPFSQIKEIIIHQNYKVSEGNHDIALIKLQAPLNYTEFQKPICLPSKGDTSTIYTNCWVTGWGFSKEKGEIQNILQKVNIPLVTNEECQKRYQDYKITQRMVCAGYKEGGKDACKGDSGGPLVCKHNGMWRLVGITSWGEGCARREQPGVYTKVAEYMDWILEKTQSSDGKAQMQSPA
As usually defined, the % inhibition is the relative decrease from the control value, in per cent. A lower % inhibition goes with a response near the control. Consider B1, for which the “% inhibition at 10 nM” value is 87.7%.
On to B2, for which the “% inhibition at 10 nM” value was 85.4%.
With B3, the “% inhibition at 10 nM” value turned out to be 84.2%.
With B4 the figure was 84.2%; with B5, 85.8%; with B6, 84%.
With B7 the figure was 84.6%; with B8, 86.1%.
